Patent publication US20180057596A1 (AstraZeneca / MedImmune, published 2018)
Where “and” joins values, the source holds several entries; their conditions need not be identical. Identical values can stand only once. Like-named read-outs stand apart in the source and are kept apart here.

B1: human IL-4Rα HIS FLAG (in house HEK-EBNA derived) (receptor)
chain: MKVLQEPTCVSDYMSISTCEWKMNGPTNCSTELRLLYQLVFLLSEAHTCIPENNGGAGCVCHLLMDDVVSADNYTLDLWAGQQLLWKGSFKPSEHVKPRAPGNLTVHTNVSDTLLLTWSNPYPPDNYLYNHLTYAVNIWSENDPADFRIYNVTYLEPSLRIAASTLKSGISYRARVRAWAQCYNTTWSEWSPSTKWHNSYREPFNPAFLYKVVGAADYKDDDDKAAHHHHHHHHHH
modifications: biotinylated where used as the labelled partner in the DELFIA assay
notes: also called HuIL-4Rα; Human IL4-Rα/FLAG/HIS tag

Experiments:
[1] = biological target: T1, antibody tested in the epitope mapping of Example 5; experiment: HTRF competition, test protein against biotinylated human IL-4Rα/Fc for cryptate labelled antibody
T1 construct: also called an antibody of the invention
Method: (§1) Antibody was cryptate labelled with Eu³⁺ Cryptate labelling kit according to the manufacturer's instructions (CisBio International Cat No. 62EUSPEA) and IL-4R•/Fc (R&D systems Cat. No. 604-4R-050) was Biotin labelled with EZ Link NHS-Biotin according to the manufacturer's instructions (Perbio Cat No. 20217). […] 1% BSA, 0. 4M potassium fluoride in a total volume of 20 μl in a 384 well microtitre plate (Greiner). To the assay a dilution series (from 1000 nM to 0.017 nM) of test proteins was added and the assay incubated overnight at 4° C. FRET signal was detected using a PerkinElmer EnVision plate reader using a 320 nm excitation filter and 620 nm and 665 nm emission filters. Results were calculated from the 665/620 ratio as a percentage of specific binding (signal with no competitor antigen). Results were analysed with Prism (GraphPad Software) using the sigmoidal dose response model.

[2] = biological target: T1, antibody tested in the epitope mapping …; experiment: as above; remark: listed apart in the source
Method: as §1
Antibody binding of chimeric molecules was tested in an HTRF (Homogeneous Time Resolved Fluorescence) competition assay. Molecules which bound antibody at the same paratope as human IL-4R• inhibited the binding interaction, leading to a reduction in signal. From inhibition curves IC₅₀ values for human IL-4R•, mouse IL-4R• and chimeric molecules were calculated (Table 5). […] Chimeras that gave similar IC₅₀ values to native human IL-4R• still contained the epitope.

[3] = biological target: T1, antibody tested in the epitope mapping …; experiment: as above; remark: listed apart in the source
Method: as §1

[4] = biological target: T2, cynomolgus IL-4Rα HIS FLAG (cynomolgus); experiment: SPR (BIAcore 2000), value in parentheses under the mean, taken as a single determination
T2 construct: also called Cyno IL4Rα HIS FLAG; not shown: HIS and FLAG tags and any vector-encoded linker of the cynomolgus HIS FLAG construct
T2 chain: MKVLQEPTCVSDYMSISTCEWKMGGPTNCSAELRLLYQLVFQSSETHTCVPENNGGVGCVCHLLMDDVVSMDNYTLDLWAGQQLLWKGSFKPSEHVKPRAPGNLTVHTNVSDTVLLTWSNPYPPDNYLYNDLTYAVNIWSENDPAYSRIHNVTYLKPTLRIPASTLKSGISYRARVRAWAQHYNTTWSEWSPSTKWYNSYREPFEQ
Method: (§2) In brief, Protein G′ (Sigma Aldrich, P4689) was covalently coupled to the surface of a CM5 sensor chip using standard amine coupling reagents according to manufacturer's instructions (BIAcore). This Protein G′ surface was used to capture a constant amount of purified anti-IL4R• antibodies or isotype control via the Fc domain. Human or cynomolgus IL-4R• HIS FLAG prepared in HBS-EP buffer (BIAcore AB), at a range of concentrations, between 100 nM and 0.2 nM, were passed over the sensor chip surface. […] The resulting sensorgrams were evaluated using BIA evaluation 4.1 software and fitted to 1:1 Langmuir binding model, to provide the relative binding data. The experiments were performed over the course of at least three separate days to calculate an average monovalent affinity.

[5] = biological target: B1; experiment: as above
Method: as §2

[6] = biological target: B1; experiment: SPR (BIAcore 2000), value in parentheses under the mean, taken as a single determination; single determination, one of three separate days; the mean is 0.255 nM
Method: as §2

[7] = biological target: T2, cynomolgus IL-4Rα HIS FLAG; experiment: SPR (BIAcore 2000), IgG captured on Protein G', receptor as analyte, 1:1 Langmuir
Method: as §2

[8] = biological target: B1; experiment: as above
Method: as §2

[9] = biological target: T3, human IL-4Rα on TF-1 cells (human, UniProt P24394 26-825); experiment: cell-based or functional assay
T3 sequence (looked up): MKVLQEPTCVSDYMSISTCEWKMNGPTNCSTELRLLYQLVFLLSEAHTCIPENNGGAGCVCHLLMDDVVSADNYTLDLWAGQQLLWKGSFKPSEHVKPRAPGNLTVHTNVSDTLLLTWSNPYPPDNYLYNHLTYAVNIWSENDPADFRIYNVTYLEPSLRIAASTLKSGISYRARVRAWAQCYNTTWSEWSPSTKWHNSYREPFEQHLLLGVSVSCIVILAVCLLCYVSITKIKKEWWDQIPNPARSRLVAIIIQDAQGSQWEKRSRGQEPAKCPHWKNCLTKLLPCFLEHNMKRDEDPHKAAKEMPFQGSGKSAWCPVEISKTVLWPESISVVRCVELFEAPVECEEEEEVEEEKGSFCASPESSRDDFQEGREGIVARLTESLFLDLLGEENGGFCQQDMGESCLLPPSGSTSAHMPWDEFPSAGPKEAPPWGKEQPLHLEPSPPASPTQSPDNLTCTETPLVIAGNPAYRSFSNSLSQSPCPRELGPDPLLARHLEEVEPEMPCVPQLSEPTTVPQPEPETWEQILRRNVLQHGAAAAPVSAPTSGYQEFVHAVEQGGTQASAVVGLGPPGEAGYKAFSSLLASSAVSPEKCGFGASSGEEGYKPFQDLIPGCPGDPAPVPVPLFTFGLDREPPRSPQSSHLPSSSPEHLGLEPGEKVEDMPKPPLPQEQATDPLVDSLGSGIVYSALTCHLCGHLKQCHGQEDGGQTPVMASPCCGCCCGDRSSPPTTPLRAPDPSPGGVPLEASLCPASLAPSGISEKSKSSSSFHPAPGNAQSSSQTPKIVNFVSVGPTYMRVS

[10] = biological target: T3, human IL-4Rα on TF-1 cells; experiment: cell-based or functional assay; remark: listed apart in the source

B1
IC50 [1]: 0.673 nM
IC50 [2]: 0.673 nM
IC50 [3]: 0.673 nM

B2: Antibody 37 IgG (antibody, V domains shown)
VH: QVQLVQSGAEVKKPGASVKVSCKASGYAFTSYYMHWARQAPGQGLEWMGIINPRGGSTSYAQKFQGRVAMTRDTSTSTVYMELSSLRPEDTAVYYCARGKYWMYDWGKGTLVTVSS
VL: QSVLTQPPSVSAAPGQKVTISCSGGGSSIGNSYVSWYQQLPGTAPKLLIYDNNKRPSGVPDRFSGSKSGTSATLAITGLQTGDEADYYCGTWDTSPVWEWPFGTGTKLTVL
Kd [4]: 2.59 nM and 2.36 nM and 3.96 nM
Kd [5]: 0.25 nM and 0.203 nM
Kd [6]: 0.313 nM
Kd [7]: 2.97 nM
koff [7]: 0.000688 s⁻¹
kon [7]: 243000 M⁻¹ s⁻¹
Kd [8]: 0.255 nM
koff [8]: 0.000162 s⁻¹
kon [8]: 640000 M⁻¹ s⁻¹
IC50 (pM), IL-4 induced TF-1 cell proliferation [9]: 10.4 pM
IC50 (pM), IL-13 induced TF-1 cell proliferation [9]: 22.1 pM

B3: Antibody 24 (PGL) IgG (antibody, V domains shown)
VH: QVQLVQSGAEVKKPGASVKVSCKASGYAFTSYYMHWVRQAPGQGLEWMGIINPRGGSTSYAQKFQGRVTMTRDTSTSTVYMELSSLRSEDTAVYYCARGKYWMYDWGKGTLVTVSS
VL: QSVLTQPPSVSAAPGQKVTISCSGGSSNIGNSYVSWYQQLPGTAPKLLIYDNNKRPSGIPDRFSGSKSGTSATLGITGLQTGDEADYFCGTWDTSTVWEWPFGTGTKLTVL
IC50 (pM), IL-4 induced TF-1 cell proliferation [10]: 15.3 pM
IC50 (pM), IL-13 induced TF-1 cell proliferation [10]: 55 pM
